How the values were obtained:
[1] = target: gp41 of mutant "G-I-A" (pNL-Bal with Valine to Alanine at position 38 of gp41) (HIV-1 clone BAL2 (subtype B, CCR5-tropic))
[2] = target: gp41 of pNL4-3 (HIV-1 pNL4-3 (subtype B, CXCR4-tropic))
[3] = target: gp41 of mutant "D-I-A" (pNL-Bal with Glycine to Aspartic Acid at position 36 and Valine to Alanine at position 38 of gp41) (HIV-1 clone BAL2 (subtype B, CCR5-tropic))
[4] = target: gp41 of mutant "G-I-A" (pNL-Bal with Valine to Alanine at position 38 of gp41) (HIV-1 clone BAL2 (subtype B, CCR5-tropic)); remark: listed apart in the source

Substance: T20 (Enfuvirtide, Fuzeon) (peptide)
- Resistance factor (IC50mut/IC50wt) IC50 fold increase [1]: 13 fold
- IC50 (nM), inhibition of viral replication, deCIPhR cell to cell infection [2]: 76 nM
- IC50 (nM), inhibition of viral replication, virus to cell infection [2]: 48 nM
- IC50 (nM), inhibition of viral replication, deCIPhR [3]: 2270 nM
- Rf (resistance factor, IC50 on mutant virus / IC50 on reference strain) [3]: 227 fold
- IC50 (nM), inhibition of viral replication, deCIPhR [4]: 127 nM
- Rf (resistance factor, IC50 on mutant virus / IC50 on reference strain) [4]: 12.7 fold
